Positions count from the first letter of the chain named.
B1: C951 (antibody, V domains shown)
VH: QVQLQESGPRLVKPSGTLSLTCAVSGGSISTTNWWSWVRQPPGKGLEWIGEIHHSGNTNYNPSLKSRVTISVDRSKNQFSLKLSSVTAADTAVYFCARDGGRPGDPFDIWGQGTMVTVSS
VL: QSALTQPASVSGSPGQSITISCTGTSSDVGGYNYVSWYQQHPGKAPNLMIYDVSDRPSGVSNRFSGSKSGNTASLTISGLQAEDEADYYCNSFTSNSTRVFGTGTKVTV
B2: C952 (antibody, V domains shown)
VH: EVQLVQSGAEVKKPGESLTISCKDSGNSFTIYWIGWVRQMPGKGLEWMGMIYPGDSGTRYSPSFEGQVTISADESINTAYLQWRSLKASDTAMYYCVRGIAVDWYFDLWGRGTLVTVSS
VL: QSVLTQPPSVSGAPGQRVTISCTGSSSNIGAGFDVHWYQQLPGTAPKLLIYGNNNRPSGVPDRFSGSKSATSASLAITGLQAEDEADYYCQSSDSSLSGLYVFGTGTNVIV
B3: C954 (antibody, V domains shown)
VH: QVQLVQSGAEVKKPGSSVKVSCKASGDTFTNYAFSWMRQAPGQGLEWMGRIIPILGIVKYSQKFQDRVRISADKSTSTAYMDLSSLRSEDTAMYYCARDSEFSTSWFSRGYHGMDVWGQGTTVTVSS
VL: DIVMTQSPLSLPVTPGEPASISCRSSQSLLHGDGYNYLDWYLQKPGQSPHLLIYLGSNRTSGVSDRFSGSGSGTDFTLKISRVEAEDVGVYYCMQALQTPPTFGGGTKVEIK
B4: C1027 (antibody, V domains shown)
VH: EVQLVESGGGLVQPGGSLRLSCAASGFIVTTNYMSWVRQAPGKGLEWVSLIYPGGSTFYADSVEGRFTISRDNSKNTLYLQVNSLRVEDTAVYYCARDTFGRGDDHWGQGTLVTVSS
VL: DIQMTQSPSSLSASVGDRVTITCQASQDINIYLNWYQQRPGKAPKLLIYDASNLQTGVPSRFSGSGSGTDFTITISSLQPEDIATYYCQQYDNLPRSFGQGTKLEI
B5: C888 (antibody, V domains shown)
VH: EVQLVESGGGLVQPGGSLRLSCAASGFTVSSNYMSWVRQAPGKGLEWVSVIYSGGSAYYADSVKGRFTISRDNSKNTLYLQMNSLRAEDTAVYYCARDLRDQDGYSYGAFDYWGQGTLVTVSS
VL: QSALTQPASVSGSPGQSITISCTGTSSDVGGYNYVSWYQQHPGKAPKLMIYDVSNRPSGVSNRFSGSKSGNTASLTISGLQAEDEADYYCSSYTSSSSWVFGGGTKLTVL
B6: C1008 (antibody, V domains shown)
VH: EVQLVESGGGLIQPGGSLRLSCAASGFTVSSNYMSWVRQAPGKGLEWVSVIYSGGSTYYADSVKGRFTISRDNSKNTLYLQMNSLRAEDTAVYYCARVVGYDFWSGYDGGYFDYWGQGTLVTVSS
VL: B5 VL with G31S, Y34L, D52E, N55K, S91C, T94A, S95G, S98T
B7: C1009 (antibody, V domains shown)
VH: EVQLVESGGGLLQPGGSLRLSCAASGFSVSSNYMTWVRQAPGKGLEWVAAIYSGDSTYYVDSVKGRFIISRDNSKNTVYLHLSSLRAEDTAVYYCARLVGYDFRSGSDGGYFDYWGHGTLVTVSS
VL: B5 VL with V29I, G31N, Y34L, N55K, A86T, S91C, T94A, S95G, S98T
B8: C930 (antibody, V domains shown)
VH: EVQLVESGGGLFQPGGSLRLACAASGITVSSNYMSWVRQPPGKGLEWVSVIYAGGSTFYADSVKGRLTISRDNSKNTLYLQINSLRAEDTAVYYCARDLVVWGMDVWGQGTTVTVSS
VL: DIQLTQSPSFLSASVGDRVTITCRASQGISSYLAWYQQKPGKAPKLLIYAASTLQSGVPSRFSGSGSGTEFTLTISSLQPEDFATYYCQQLNTYPYTFGQGTKLEIK
B9: C889 (antibody, V domains shown)
VH: EVQLVESGGGLVQPGGSLRLSCAVSGFTVSSNYMTWVRQAPGKGLEWVSLIYSGTSAFYADSVKGRFTISRDNSKNTLYLQMSSLRVNDTAIYYCARDLRKDDGYSYGAFDYWGQGTLVTVSS
VL: QSALTQPASVSGSPGQSITISCSGTSSDVGAHNYVSWYQQYPGKAPKLMIFDVTDRPSGVSNRFSGSKSGNTASLTISGLQAEDEADYYCTSYTTNRSWVFGGGTKVTVL
B10: C908 (antibody, V domains shown)
VH: EVQLVQSGAEVKKPGESLKISCKASGYSFTIYWIGWVRQMPGKGLEWMGIIYPGESETRYSPSFQGQVTISADKSISTAYLQWRSLKASDTAMYYCARGGPPGGVKLELTDYWGQGTLVTVSS
VL: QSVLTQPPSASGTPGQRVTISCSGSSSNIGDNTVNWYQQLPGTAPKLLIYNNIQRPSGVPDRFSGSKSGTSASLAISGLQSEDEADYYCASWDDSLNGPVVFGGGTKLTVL
B11: C960 (antibody, V domains shown)
VH: QVQLVESGGGVVQPGRSLTLSCTASGFTFNRFAMFWVRQAPGKGLEWVAVISFDGSYEHYAESVKGRFAIFRDNPKNTLYLQMNSLRAEDTAVYYCAKSPINYCANGVCYPDSWGQGTLVTVSS
VL: NFMLTQPHSVSESPGKTVTISCTGSSGSIANNYVQWYQQRPGSAPTTVIFEDTQRPSGVPDRFSGSIDSSSNSASLNISGLKPEDEADYYCQSFDVNSRWVFGGGTKLTVL
B12: C953 (antibody, V domains shown)
VH: QVQLVQSGAEVKKPGSSVKVSCKASGGTFSSYAISWVRQAPGQGLEWMGRIIPILGIANYAQKFQGRVTITADKSTSTAYMELSSLRSEDTAVYYCARDSEYSSSWYSRGYYGMDVWGQGTTVTVSS
VL: not shown
B13: C881 (antibody, V domains shown)
VH: EVQLVESGGGLIQPGGSLRLSCAVSGVAVSTNYMSWVRQAPGQGLEWVSTIYSGDTTYYSDSVKGRFTISRDNSKNTFYLQMNSLRVPDTAVYYCARLGGVFNGFNGSFDYWGQGTLVTVS
VL: QSALTQPASVSGSPGQSITISCIGTSSDFENYNLVSWYQQHPGKAPKVMIYEDTKRPSGVSNRFSGSKSANTASLTISGLQAEDEAEYYCCSYAGASTWVFGGGTRVTVV
B14: C853 (antibody, V domains shown)
VH: QVQLQESGPGLVKASQTLSLTCTVSGGSFRSGGYYYNWIRQHPGKGLEWIGYIFYTGVTYYNPSLKSRVSISVDTSKNQLSLNLTSVTAADTAVYYCARGSYSDYNGGWDYWGRGTLVTVS
VL: QSALTQPPSASGSPGQSVTISCIGTSSDVGGYNYVSWYQHHPGKAPKLIIYEVSKRPSGVPDRFSGSKSGNTASLTVSGLQADDEADYYCSSYAGSNNWVFGGGTKLTV
B15: C890 (antibody, V domains shown)
VH: QVQLVQSGAEVKKPGSSVKASCKASGGTFSTYTISWVRQAPGHGLEWMGRIIPIFGTTKYAQKFQGRVTITADESTTTAYLELSSLRSEDTAVYYCTINTQWDLVPRWGQGTLVTVSS
VL: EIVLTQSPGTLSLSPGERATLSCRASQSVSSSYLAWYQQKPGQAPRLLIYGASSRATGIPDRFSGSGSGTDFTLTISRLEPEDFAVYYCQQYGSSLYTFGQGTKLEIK
B16: C889 (antibody, V domains shown)
VH: B9 VH
VL: B9 VL
B17: C892 (antibody, V domains shown)
VH: EVQLVESGGGLVKPGGSLKVSCTASGFTFTDAWMSWVRQAPGKGLEWVGRIKSRAYGGTTDYGAPVQGRFTISRDDSINTLYLQMNSLTAEDTAVYYCTSQLWLRGPGDYWGQGTLVTVSS
VL: NFMLTQPHSVSESPGKTVTISCTGSSGSIASNYVHWYQQRPGGAPTTVIYEDNQRPSGVPDRFSGSIDISSNSASLTISGLKTEDEGDYYCQSYDSGVNWVFGGGTKLTVL
B18: C844 (antibody, V domains shown)
VH: EVQLVESGGGLVKPGGSLRLSCVATGFSFSDAWMNWVRQAPGKGLEWVGRIRSEIADGTTDYAAPVKGRFTISRDDARNTLYLQMNSLEIEDTAVYYCTTGVVVVVSSSPDDAFDVWGQGTMVTVSS
VL: DIQMTQSPSSLSASVGDRVTITCRASQSIGHYLNWYQQKPGKAPKLLIYAASSLQSGVPSRFSGSGSGAGFTLTVNGLQPEDLATYYCQQYYTTPPTFGQGTKVEIK
B19: C891 (antibody, V domains shown)
VH: EVQLVESGGGLVKPGGSLRLSCAVSGFTFSNVWMSWVRQAPGKGLEWVGRIKSKTDGGTTDYAAPVKGRFTISRDDSKNTLYLQMNSLKTEDTAVYYCTSQLWLRGPGDYWGQGTLVTVSS
VL: B17 VL with H35Q, G43S, I69S, G87A, G97S, V98L
B20: C887 (antibody, V domains shown)
VH: EVQLVESGGDLVQPGGSLRLSCAASGFTFTTYSMSWVRQAPGKGLEWISYINSGSANIHYADSVKGRFTVSRDNAKNSLYLQMNSLRDEDTAVYYCARGDCLSSSCYSLDYWGQGALVTVSS
VL: DIQMTQSPSSLSASVGDRVTITCRASQSITSYLSWYLQKPGEAPKLLIYAASILQSGVPSRFGGNGSGTDFTLTISSLQPEDFATFYCQQTYRSPLTFGGGTKVEIK
B21: C845 (antibody, V domains shown)
VH: QVQLQESGPGLVKPSQTLSLTCTVSGASISSGEYYWSWVRQPPGKGLEWVGYIYYSGSTYYNPSLKSRVTISVDTSKNHFSLKLKSLTAADTAVYFCATGGLSAFGELFPHDKWGQGTLVTVSS
VL: EIVLTQSPATLSLSPGERATLSCRASQSVGSDLAWYQQKPGQAPRLLIYDTSNRATGIPARFSGSGSGTDFTLTISSLDPADFAVYYCQQRTNWLFSFGPGTKVDIK
B22: C881 (antibody, V domains shown)
VH: B13 VH
VL: B13 VL
B23: C843 (antibody, V domains shown)
VH: QVQLVESGGGVVQPGRSLRLSCAASGFTFSRYAMHWVRQAPGKGLEWVAVISYDGSNKYYATSLKGRCTISRDNSKNTLYLQMNSLRAEDTAVYFCAKQIGEYCSGGNCYQGSLDYWGQGTLVTVSS
VL: DIQMTQSPSSLSASVGDRVTITCQASQDISNYLNWYQQKPGKAPKLLIYDASDLETGVPSTFSGSGSGTDFTLTISSLQPEDFATYYCQQYDIVPFTFGPGTKVDIK

What follows are binders tested against T1, SARS-CoV-2 receptor-binding domain (WT RBD; S protein residues 319-539) (SARS-CoV-2, UniProt P0DTC2 319-539) (assay: BLI (Octet Red), IgG on protein A biosensor, WT RBD in solution, 1:1 fit).
T1 construct: also called SARS-COV-2 RBD

In order of falling Kd:
1. B5  1390 nM
2. B6  500 nM
3. B12  164 nM
4. B3  7.14 nM
5. B11  6.67 nM
6. B14  5.88 nM
7. B13  5.26 nM
8. B9  4.17 nM
9. B1  3.03 nM
10. B7  2.13 nM
11. B8  0.323 nM
12. B2  0.172 nM
13. B4  0.0114 nM
14. B10  0.0026 nM

These binders were tested against T2, SARS-CoV-2 receptor-binding domain (RBD), S protein residues 319-539 (SARS-CoV-2, UniProt P0DTC2 319-539) (assay: ELISA on coated RBD).
T2 construct: also called WT RBD; SARS-COV-2 RBD

In order of rising EC50:
1. B18  1.28 ng/mL
2. B23  1.34 ng/mL
3. B21  1.39 ng/mL
4. B19  1.44 ng/mL
5. B22  1.44 ng/mL
6. B15  2.2 ng/mL
7. B20  2.53 ng/mL
8. B17  2.9 ng/mL
9. B16  4.25 ng/mL

Reference: patent US20240218057A1 (ROCKEFELLER UNIVERSITY, published 2024)
